Source: patent US20160030526A1 (GENERAL HOSPITAL, published 2016)

Target: monovalent murine IL-2 fusion toxin (DT390-mIL-2-6xHis)
Experiment: flow cytometry on CTLL-2 cells

B1: murine IL-2 receptor on murine CD25+ CTLL-2 cells (receptor)
chain 1: ELCLYDPPEVPNATFKALSYKNGTILNCECKRGFRRLKELVYMRCLGNSWSSNCQCTSNSHDKSRKQVTAQLEHQKEQQTTTDMQKPTQSMHQENLTGHCREPPPWKHEDSKRIYHFVEGQSVHYECIPGYKALQRGPAISICKMKCGKTGWTQPQLTCVDEREHHRFLASEESQGSRNSSPESETSCPITTTDFPQPTETTAMTETFVLTMEYKVAVASCLFLLISILLLSGLTWQHRWRKSRRTI
chain 2: AVKNCSHLECFYNSRANVSCMWSHEEALNVTTCHVHAKSNLRHWNKTCELTLVRQASWACNLILGSFPESQSLTSVDLLDINVVCWEEKGWRRVKTCDFHPFDNLRLVAPHSLQVLHIDTQRCNISWKVSQVSHYIEPYLEFEARRRLLGHSWEDASVLSLKQRQQWLFLEMLIPSTSYEVQVRVKAQRNNTGTWSPWSQPLTFRTRPADPMKEILPMSWLRYLLLVLGCFSGFFSCVYILVKCRYLGPWLKTVLKCHIPDPSEFFSQLSSQHGGDLQKWLSSPVPLSFFSPSGPAPEISPLEVLDGDSKAVQLLLLQKDSAPLPSPSGHSQASCFTNQGYFFFHLPNALEIESCQVYFTYDPCVEEEVEEDGSRLPEGSPHPPLLPLAGEQDDYCAFPPRDDLLLFSPSLSTPNTAYGGSRAPEERSPLSLHEGLPSLASRDLMGLQRPLERMPEGDGEGLSANSSGEQASVPEGNLHGQDQDRGQGPILTLNTDAYLSLQELQAQDSVHLI
chain 3: WSSKVLMSSANEDIKADLILTSTAPEHLSAPTLPLPEVQCFVFNIEYMNCTWNSSSEPQATNLTLHYRYKVSDNNTFQECSHYLFSKEITSGCQIQKEDIQLYQTFVVQLQDPQKPQRRAVQKLNLQNLVIPRAPENLTLSNLSESQLELRWKSRHIKERCLQYLVQYRSNRDRSWTELIVNHEPRFSLPSVDELKRYTFRVRSRYNPICGSSQQWSKWSQPVHWGSHTVEENPSLFALEAVLIPVGTMGLIITLIFVYCWLERMPPIPPIKNLEDLVTEYQGNFSAWSGVSKGLTESLQPDYSERFCHVSEIPPKGGALGEGPGGSPCSLHSPYWPPPCYSLKPEA
notes: whole, on cells; also called murine CD25+ IL-2 receptor
- binding result: binds
